Tests used:
A549 cells = assay: ROS levels (DHE reagent) and cell viability by flow cytometry; format: cell-based, human; conditions: for DHE reagent (Geometric mean) Mean: ROS level
Protocol: In addition to inducing higher levels of apoptosis compared to the CIGB-300 peptide, the lipopeptide also triggered greater reactive oxygen species (ROS) production in A549 cells after 2 hours of incubation with the antioxidant N-acetyl-L-cysteine (NAC), as analyzed by flow cytometry (Table 2). The elevated ROS levels were correlated with the stronger inhibitory effect of the lipopeptide on cell viability. Table 2: ROS levels induced by the lipopeptide and the CIGB-300 peptide in A549 cells

MRC-5 = assay: Cell viability, Alamar Blue (benign cells); format: cell-based; conditions: MRC-5, Benign, Lung fibroblasts; 48 hours of incubation
RR-805 = assay: Cell viability, Alamar Blue (benign cells); format: cell-based; conditions: RR-805, Benign, Renal primary fibroblasts; 48 hours of incubation
Hep-2 = assay: Tumor cell viability, Alamar Blue; format: cell-based, human; conditions: Hep-2, Malignant, Laryngeal squamous cell carcinoma; 48 hours of incubation
Protocol: (§1) All human tumor cells used in the present application were obtained from the American Type Culture Collection (ATCC, Manassas, VA, USA) and cultured in RPMI 1640 medium (Gibco) supplemented with 10% (v/v) fetal bovine serum and gentamicin (50 µg/ml) at 37 °C in a 5% CO2 atmosphere. The effects of the lipopeptide and the CIGB-300 peptide on tumor cell viability were assessed using Alamar Blue reagent (Life Technologies, Carlsbad, CA, USA). Cells were seeded in flatbottom 96-well plates (2×10^5 cells/mL, 200 µL/well) and incubated for 24 hours, followed by treatment with the lipopeptide and the CIGB-300 peptide serially diluted from 100 to 3.12 µM at a 1:2 ratio. After 48 hours of incubation, 10% (v/v) Alamar Blue was added, and the cell suspension was incubated for an additional 4 hours. Fluorescence intensity in the microplates was measured, and IC50 values were calculated using CalcuSyn software (version 2.1) (Biosoft, Cambridge, UK).

NCI-H226 = assay: Tumor cell viability, Alamar Blue; format: cell-based, human; conditions: NCI-H226, Malignant, NSCLC; 48 hours of incubation
Protocol: as §1

NCI-H125 = assay: Tumor cell viability, Alamar Blue; format: cell-based, human; conditions: NCI-H125, Malignant, NSCLC; 48 hours of incubation
Protocol: as §1

U87 = assay: Tumor cell viability, Alamar Blue; format: cell-based, human; conditions: U87, Malignant, Glioblastoma; 48 hours of incubation
Protocol: as §1

PC3 = assay: Tumor cell viability, Alamar Blue; format: cell-based, human; conditions: PC3, Malignant, Prostate cancer; 48 hours of incubation
Protocol: as §1

NCI-H82 = assay: Tumor cell viability, Alamar Blue; format: cell-based, human; conditions: NCI-H82, Malignant, SCLC; 48 hours of incubation
Protocol: as §1

SW948 = assay: Tumor cell viability, Alamar Blue; format: cell-based, human; conditions: SW948, Malignant, Colon adenocarcinoma; 48 hours of incubation
Protocol: as §1

HepG2 = assay: Tumor cell viability, Alamar Blue; format: cell-based, human; conditions: HepG2, Malignant, Hepatocellular carcinoma; 48 hours of incubation
Protocol: as §1

SK-MES1 = assay: Tumor cell viability, Alamar Blue; format: cell-based, human; conditions: SK-MES1, Malignant, NSCLC; 48 hours of incubation
Protocol: as §1

A549 = assay: Tumor cell viability, Alamar Blue; format: cell-based, human; conditions: A549, Malignant, NSCLC; 48 hours of incubation
Protocol: as §1

A431 = assay: Tumor cell viability, Alamar Blue; format: cell-based, human; conditions: A431, Malignant, Vulvar epidermoid carcinoma; 48 hours of incubation
Protocol: as §1

NCI-H460 = assay: Tumor cell viability, Alamar Blue; format: cell-based, human; conditions: NCI-H460, Malignant, NSCLC; 48 hours of incubation
Protocol: as §1

NCI-H522 = assay: Tumor cell viability, Alamar Blue; format: cell-based, human; conditions: NCI-H522, Malignant, NSCLC; 48 hours of incubation
Protocol: as §1

recombinant CK2α = assay: cell-based or functional assay
[1] = molecular target: High mobility group protein HMGI-C (Homo sapiens) (UniProt P52926)
Sequence of High mobility group protein HMGI-C (Homo sapiens) (P52926 2-109 limits assumed): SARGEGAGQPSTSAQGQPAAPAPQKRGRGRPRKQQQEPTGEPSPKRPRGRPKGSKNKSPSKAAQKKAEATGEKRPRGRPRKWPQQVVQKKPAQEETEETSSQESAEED

Surfeit locus protein 2 = Surfeit locus protein 2 (Homo sapiens, UniProt Q15527)
Sequence of Surfeit locus protein 2 (Q15527 whole entry): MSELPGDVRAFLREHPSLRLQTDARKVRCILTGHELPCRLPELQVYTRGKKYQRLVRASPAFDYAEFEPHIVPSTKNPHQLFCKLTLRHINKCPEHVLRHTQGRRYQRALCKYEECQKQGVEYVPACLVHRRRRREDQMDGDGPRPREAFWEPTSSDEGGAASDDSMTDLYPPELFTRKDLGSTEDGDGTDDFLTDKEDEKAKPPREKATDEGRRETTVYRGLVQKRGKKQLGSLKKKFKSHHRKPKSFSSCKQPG

[2] = molecular target: Cleavage stimulation subunit 3 (Homo sapiens) (UniProt Q12996)
Sequence of Cleavage stimulation subunit 3 (Homo sapiens) (Q12996 2-717 limits assumed): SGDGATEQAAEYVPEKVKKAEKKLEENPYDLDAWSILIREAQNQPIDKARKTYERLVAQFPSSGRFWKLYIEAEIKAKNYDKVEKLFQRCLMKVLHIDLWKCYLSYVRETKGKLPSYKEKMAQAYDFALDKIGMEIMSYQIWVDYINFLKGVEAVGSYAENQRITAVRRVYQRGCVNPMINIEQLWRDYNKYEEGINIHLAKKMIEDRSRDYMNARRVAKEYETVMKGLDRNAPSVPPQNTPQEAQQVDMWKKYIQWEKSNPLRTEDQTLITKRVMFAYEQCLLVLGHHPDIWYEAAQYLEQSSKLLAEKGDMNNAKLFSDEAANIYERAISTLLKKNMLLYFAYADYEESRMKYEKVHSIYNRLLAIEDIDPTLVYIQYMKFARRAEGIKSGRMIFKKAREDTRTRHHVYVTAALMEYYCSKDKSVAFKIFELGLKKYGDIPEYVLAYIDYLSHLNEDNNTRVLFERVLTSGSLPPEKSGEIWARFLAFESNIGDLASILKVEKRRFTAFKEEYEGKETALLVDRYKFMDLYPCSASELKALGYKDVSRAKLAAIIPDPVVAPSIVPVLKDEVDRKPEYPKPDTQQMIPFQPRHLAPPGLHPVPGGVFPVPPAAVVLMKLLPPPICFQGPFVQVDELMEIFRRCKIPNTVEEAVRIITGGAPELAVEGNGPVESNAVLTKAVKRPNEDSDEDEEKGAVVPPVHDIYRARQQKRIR

Cullin-1 = Cullin-1 (Homo sapiens, UniProt Q13616)
Sequence of Cullin-1 (Q13616 whole entry): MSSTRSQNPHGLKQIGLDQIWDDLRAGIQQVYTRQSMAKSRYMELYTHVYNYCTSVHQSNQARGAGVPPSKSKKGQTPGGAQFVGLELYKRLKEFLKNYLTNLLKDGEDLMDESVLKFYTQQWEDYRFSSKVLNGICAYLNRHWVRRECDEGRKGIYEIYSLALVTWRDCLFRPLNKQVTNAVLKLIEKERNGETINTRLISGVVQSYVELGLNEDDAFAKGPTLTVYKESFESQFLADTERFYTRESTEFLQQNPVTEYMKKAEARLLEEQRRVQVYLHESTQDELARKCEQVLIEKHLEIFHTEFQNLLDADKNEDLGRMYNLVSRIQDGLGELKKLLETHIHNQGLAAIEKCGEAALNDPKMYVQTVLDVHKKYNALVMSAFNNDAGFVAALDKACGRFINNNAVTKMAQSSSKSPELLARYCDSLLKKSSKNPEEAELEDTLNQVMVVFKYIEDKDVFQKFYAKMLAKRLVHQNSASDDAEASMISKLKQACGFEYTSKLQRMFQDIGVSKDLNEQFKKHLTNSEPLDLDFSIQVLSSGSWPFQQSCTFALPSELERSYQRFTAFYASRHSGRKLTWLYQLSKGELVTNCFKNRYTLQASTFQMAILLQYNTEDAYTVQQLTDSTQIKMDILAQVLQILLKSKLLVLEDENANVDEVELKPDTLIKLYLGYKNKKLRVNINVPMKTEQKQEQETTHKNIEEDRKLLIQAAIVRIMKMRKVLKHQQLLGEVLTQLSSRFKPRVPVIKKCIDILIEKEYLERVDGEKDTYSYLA

[3] = molecular target: Replication protein A 32 kDa subunit (Homo sapiens, UniProt P15927)
Sequence of Replication protein A 32 kDa subunit (P15927 whole entry): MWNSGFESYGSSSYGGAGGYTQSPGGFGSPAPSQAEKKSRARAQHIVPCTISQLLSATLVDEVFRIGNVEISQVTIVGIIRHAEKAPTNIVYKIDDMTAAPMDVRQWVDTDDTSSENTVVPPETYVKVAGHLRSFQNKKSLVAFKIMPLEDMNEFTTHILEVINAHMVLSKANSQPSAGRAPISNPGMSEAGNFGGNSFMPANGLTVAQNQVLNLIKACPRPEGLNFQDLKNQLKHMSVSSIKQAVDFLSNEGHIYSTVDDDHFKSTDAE

[4] = molecular target: Collagen alpha-1(V) chain (Homo sapiens, UniProt P20908)
[5] = molecular target: Gem-associated protein 2 (Homo sapiens) (UniProt O14893)
Sequence of Gem-associated protein 2 (Homo sapiens) (O14893 whole entry): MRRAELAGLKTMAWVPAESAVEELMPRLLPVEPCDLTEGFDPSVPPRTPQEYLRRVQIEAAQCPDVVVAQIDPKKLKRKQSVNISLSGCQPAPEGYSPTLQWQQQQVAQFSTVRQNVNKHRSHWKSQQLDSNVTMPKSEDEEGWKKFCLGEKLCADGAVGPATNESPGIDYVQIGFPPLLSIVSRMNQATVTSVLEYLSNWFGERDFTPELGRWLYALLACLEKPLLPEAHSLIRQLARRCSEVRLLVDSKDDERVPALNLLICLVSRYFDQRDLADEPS

[6] = molecular target: Arginyl-tRNA-protein transferase 1 (Homo sapiens, UniProt O95260)
Sequence of Arginyl-tRNA-protein transferase 1 (O95260 whole entry): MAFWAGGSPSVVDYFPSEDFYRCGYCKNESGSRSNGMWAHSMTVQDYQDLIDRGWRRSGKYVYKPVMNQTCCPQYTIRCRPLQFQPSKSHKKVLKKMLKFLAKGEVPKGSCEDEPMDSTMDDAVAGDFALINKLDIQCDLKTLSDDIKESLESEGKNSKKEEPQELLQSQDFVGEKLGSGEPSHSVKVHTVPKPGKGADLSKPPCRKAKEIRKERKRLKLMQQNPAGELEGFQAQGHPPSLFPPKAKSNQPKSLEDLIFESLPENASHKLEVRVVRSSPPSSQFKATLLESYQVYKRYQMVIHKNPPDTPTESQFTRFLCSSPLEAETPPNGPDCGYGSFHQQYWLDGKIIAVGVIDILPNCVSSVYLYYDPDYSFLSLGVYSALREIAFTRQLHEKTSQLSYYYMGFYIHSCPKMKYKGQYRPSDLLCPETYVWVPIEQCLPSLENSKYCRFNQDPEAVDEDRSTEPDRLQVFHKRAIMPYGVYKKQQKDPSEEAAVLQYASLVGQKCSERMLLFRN

[7] = molecular target: Serine/arginine-rich splicing factor 8 (Homo sapiens) (UniProt Q9BRL6)
Sequence of Serine/arginine-rich splicing factor 8 (Homo sapiens) (Q9BRL6 2-282 limits assumed): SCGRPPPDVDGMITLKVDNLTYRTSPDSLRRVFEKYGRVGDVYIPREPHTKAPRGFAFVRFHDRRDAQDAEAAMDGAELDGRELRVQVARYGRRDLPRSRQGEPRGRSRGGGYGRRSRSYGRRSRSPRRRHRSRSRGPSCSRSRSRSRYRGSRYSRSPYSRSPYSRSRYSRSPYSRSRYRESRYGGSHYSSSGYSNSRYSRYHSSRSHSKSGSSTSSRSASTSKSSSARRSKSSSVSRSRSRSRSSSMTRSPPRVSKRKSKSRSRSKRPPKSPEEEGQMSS

Xaa-Pro aminopeptidase 1 = Xaa-Pro aminopeptidase 1 (Homo sapiens, UniProt Q9NQW7)
Sequence of Xaa-Pro aminopeptidase 1 (Q9NQW7 2-623 limits assumed): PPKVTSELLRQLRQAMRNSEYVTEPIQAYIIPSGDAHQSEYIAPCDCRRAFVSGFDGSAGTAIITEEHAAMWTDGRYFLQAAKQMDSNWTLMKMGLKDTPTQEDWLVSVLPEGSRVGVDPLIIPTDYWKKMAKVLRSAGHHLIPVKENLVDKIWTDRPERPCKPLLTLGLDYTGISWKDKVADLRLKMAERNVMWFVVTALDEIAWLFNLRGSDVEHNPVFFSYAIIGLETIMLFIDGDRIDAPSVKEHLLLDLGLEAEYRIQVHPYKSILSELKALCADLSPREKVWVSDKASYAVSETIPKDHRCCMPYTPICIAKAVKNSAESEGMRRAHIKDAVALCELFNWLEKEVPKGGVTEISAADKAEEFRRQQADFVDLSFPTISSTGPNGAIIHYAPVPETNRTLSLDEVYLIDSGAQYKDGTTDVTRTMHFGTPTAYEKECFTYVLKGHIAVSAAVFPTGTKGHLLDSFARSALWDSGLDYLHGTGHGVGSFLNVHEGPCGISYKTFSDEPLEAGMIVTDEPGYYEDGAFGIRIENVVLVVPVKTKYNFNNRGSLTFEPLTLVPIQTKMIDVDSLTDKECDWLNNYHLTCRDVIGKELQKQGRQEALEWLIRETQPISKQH

[8] = molecular target: Calponin-3 (Homo sapiens) (UniProt Q15417)
Sequence of Calponin-3 (Homo sapiens) (Q15417 whole entry): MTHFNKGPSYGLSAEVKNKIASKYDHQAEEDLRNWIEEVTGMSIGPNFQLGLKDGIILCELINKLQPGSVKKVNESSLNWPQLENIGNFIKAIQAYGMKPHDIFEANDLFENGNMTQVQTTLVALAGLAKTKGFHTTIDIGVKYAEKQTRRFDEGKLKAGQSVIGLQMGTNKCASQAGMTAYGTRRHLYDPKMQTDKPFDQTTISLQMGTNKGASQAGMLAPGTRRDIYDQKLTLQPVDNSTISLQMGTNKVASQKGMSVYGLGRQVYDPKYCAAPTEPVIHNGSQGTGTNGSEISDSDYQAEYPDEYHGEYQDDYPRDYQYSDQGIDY

Histone H2A type 2-B = Histone H2A type 2-B (Homo sapiens, UniProt Q8IUE6)
[9] = molecular target: U6 snRNA-associated Sm-like protein LSm8 (Homo sapiens) (UniProt O95777)
Sequence of U6 snRNA-associated Sm-like protein LSm8 (Homo sapiens) (O95777 2-96 limits assumed): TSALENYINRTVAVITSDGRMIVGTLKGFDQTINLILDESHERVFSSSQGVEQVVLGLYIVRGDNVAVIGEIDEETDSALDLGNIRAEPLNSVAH

[10] = With NAC, 2 hours of incubation

## OO [H2O2]
A549 cells; [10]
  Cell viability (%) Mean: 94.9%
  DHE reagent (Geometric mean) Mean: 4175
A549 cells; Without NAC
  Cell viability (%) Mean: 94.0%
  DHE reagent (Geometric mean) Mean: 4335

## CSCC[C@@H]1NC(=O)[C@H](Cc2c[nH]c3ccccc23)NC(=O)[C@@H](NC(=O)CCNC(=O)[C@H](CCC(N)=O)NC(=O)[C@@H]2CCCN2C(=O)[C@@H]2CCCN2C(=O)[C@H](CCCNC(=N)N)NC(=O)[C@H](CCCNC(=N)N)NC(=O)[C@H](CCCNC(=N)N)NC(=O)[C@H](CCC(N)=O)NC(=O)[C@H](CCCNC(=N)N)NC(=O)[C@H](CCCNC(=N)N)NC(=O)[C@H](CCCCN)NC(=O)[C@H](CCCCN)NC(=O)[C@H](CCCNC(=N)N)NC(=O)CN)CSSC[C@@H](C(N)=O)NC(=O)[C@H]([C@@H](C)O)NC(=O)CNC(=O)[C@H](CC(C)C)NC(=O)[C@H](Cc2c[nH]cn2)NC(=O)[C@H](CCCNC(=N)N)NC(=O)[C@@H]2CCCN2C(=O)[C@H](CO)NC1=O [The CIGB-300 peptide, reference compound]
MRC-5
  IC50: 198 ± 8 µM
RR-805
  IC50: 230 ± 6 µM
Hep-2
  IC50: 30.7 ± 2 µM
NCI-H226
  IC50: 70.8 µM
NCI-H125
  IC50: 76.3 ± 2 µM
U87
  IC50: 154 ± 15 µM
PC3
  IC50: 170 ± 5 µM
NCI-H82
  IC50: 39.7 ± 11 µM
SW948
  IC50: 143.1 ± 1 µM
HepG2
  IC50: 128 ± 44 µM
SK-MES1
  IC50: 150 ± 7 µM
A549
  IC50: 180 ± 30 µM
A431
  IC50: 90.7 ± 4 µM
NCI-H460
  IC50: 30 ± 9 µM
NCI-H522
  IC50: 70 µM

## CIGB-300 peptide
Recombinant CK2α
  CK2 enzyme activity (CPM x10^3) at 0.00 µM peptide (baseline without peptide): 170000 CPM
  CK2 enzyme activity (CPM x10^3) at 0.097 µM peptide: 171000 CPM
  CK2 enzyme activity (CPM x10^3) at 0.195 µM peptide: 169000 CPM
  CK2 enzyme activity (CPM x10^3) at 0.39 µM peptide: 162000 CPM
  CK2 enzyme activity (CPM x10^3) at 0.781 µM peptide: 158000 CPM
  CK2 enzyme activity (CPM x10^3) at 1.56 µM peptide: 109000 CPM
  CK2 enzyme activity (CPM x10^3) at 3.125 µM peptide: 92000 CPM
  CK2 enzyme activity (CPM x10^3) at 6.25 µM peptide: 61000 CPM
  CK2 enzyme activity (CPM x10^3) at 12.5 µM peptide: 31000 CPM
  CK2 enzyme activity (CPM x10^3) at 25 µM peptide: 19000 CPM
  CK2 enzyme activity (CPM x10^3) at 50 µM peptide: 4000 CPM

## synthetic anti-cancer lipopeptide (decanoyl-CIGB-300)
[1]
  Abundance ratio of lipopeptide/CIGB-300: 3.88
Surfeit locus protein 2
  Abundance ratio of lipopeptide/CIGB-300: 2.05
[2]
  Abundance ratio of lipopeptide/CIGB-300: 5.12
Cullin-1
  Abundance ratio of lipopeptide/CIGB-300: 2.3
[3]
  Abundance ratio of lipopeptide/CIGB-300: 2.1
[4]
  Abundance ratio of lipopeptide/CIGB-300: 2.97
[5]
  Abundance ratio of lipopeptide/CIGB-300: 2.62
[6]
  Abundance ratio of lipopeptide/CIGB-300: 2.01
[7]
  Abundance ratio of lipopeptide/CIGB-300: 2.86
Xaa-Pro aminopeptidase 1
  Abundance ratio of lipopeptide/CIGB-300: 2.26
[8]
  Abundance ratio of lipopeptide/CIGB-300: 2.37
Histone H2A type 2-B
  Abundance ratio of lipopeptide/CIGB-300: 2.19
[9]
  Abundance ratio of lipopeptide/CIGB-300: 3.31
